Measurements: paper PMC5566995, “Development and Characterization of a Camelid Single Domain Antibody–Urease Conjugate That Targets Vascular Endothelial Growth Factor Receptor 2” (Frontiers in Immunology, 2017)

How the values were obtained:
V21H4-DOS47 = target: T1, V21H4-DOS47 (llama | jack bean (Canavalia ensiformis)); experiment: ELISA; VEGFR/Fc (0.25 ug/mL) captured on plates coated with goat anti-human IgG-Fc; dilutions of antibody-urease conjugate or biotinylated antibody in 0.1% BSA/T-TBS, room temperature, 2 h; conjugates detected with rabbit anti-urease and goat anti-rabbit-AP, biotinylated antibody with streptavidin-alkaline phosphatase; A405; conditions: both partners purified
T1 construct: as the chain of m1; residues 1-127 of V21H4; urease, jack bean (Canavalia ensiformis), homohexamer, purified from crude urease; Antibody-urease conjugate; the standard method gives 8.7-9.2; also called V21-DOS47; V21H4-DOS47 (8.8 antibodies/urease); source: conjugate purified by diafiltration; copies: 8.8 + 6

[1] = target: T2, VEGFR2 expressed by 293/KDR cells (Homo sapiens (assumed; KDR), UniProt P35968); experiment: flow cytometry on cells; 293/KDR cells incubated with conjugate or biotinylated antibody in staining buffer (PBS with Ca2+ and Mg2+, 0.02% NaN3, 2% FBS) at 2-8 C for 1 h; conjugates detected with mouse anti-urease and AF488-anti-mouse IgG, biotinylated antibody with PE-SA; signal as ratio to 293 cells or to a biotin-isotype control; conditions: one partner purified
T2 construct: vascular endothelial growth factor receptor 2 (VEGFR2, KDR) expressed on 293/KDR cells; source: 293/KDR cells, on the cell surface
T2 sequence (P35968 20-1356): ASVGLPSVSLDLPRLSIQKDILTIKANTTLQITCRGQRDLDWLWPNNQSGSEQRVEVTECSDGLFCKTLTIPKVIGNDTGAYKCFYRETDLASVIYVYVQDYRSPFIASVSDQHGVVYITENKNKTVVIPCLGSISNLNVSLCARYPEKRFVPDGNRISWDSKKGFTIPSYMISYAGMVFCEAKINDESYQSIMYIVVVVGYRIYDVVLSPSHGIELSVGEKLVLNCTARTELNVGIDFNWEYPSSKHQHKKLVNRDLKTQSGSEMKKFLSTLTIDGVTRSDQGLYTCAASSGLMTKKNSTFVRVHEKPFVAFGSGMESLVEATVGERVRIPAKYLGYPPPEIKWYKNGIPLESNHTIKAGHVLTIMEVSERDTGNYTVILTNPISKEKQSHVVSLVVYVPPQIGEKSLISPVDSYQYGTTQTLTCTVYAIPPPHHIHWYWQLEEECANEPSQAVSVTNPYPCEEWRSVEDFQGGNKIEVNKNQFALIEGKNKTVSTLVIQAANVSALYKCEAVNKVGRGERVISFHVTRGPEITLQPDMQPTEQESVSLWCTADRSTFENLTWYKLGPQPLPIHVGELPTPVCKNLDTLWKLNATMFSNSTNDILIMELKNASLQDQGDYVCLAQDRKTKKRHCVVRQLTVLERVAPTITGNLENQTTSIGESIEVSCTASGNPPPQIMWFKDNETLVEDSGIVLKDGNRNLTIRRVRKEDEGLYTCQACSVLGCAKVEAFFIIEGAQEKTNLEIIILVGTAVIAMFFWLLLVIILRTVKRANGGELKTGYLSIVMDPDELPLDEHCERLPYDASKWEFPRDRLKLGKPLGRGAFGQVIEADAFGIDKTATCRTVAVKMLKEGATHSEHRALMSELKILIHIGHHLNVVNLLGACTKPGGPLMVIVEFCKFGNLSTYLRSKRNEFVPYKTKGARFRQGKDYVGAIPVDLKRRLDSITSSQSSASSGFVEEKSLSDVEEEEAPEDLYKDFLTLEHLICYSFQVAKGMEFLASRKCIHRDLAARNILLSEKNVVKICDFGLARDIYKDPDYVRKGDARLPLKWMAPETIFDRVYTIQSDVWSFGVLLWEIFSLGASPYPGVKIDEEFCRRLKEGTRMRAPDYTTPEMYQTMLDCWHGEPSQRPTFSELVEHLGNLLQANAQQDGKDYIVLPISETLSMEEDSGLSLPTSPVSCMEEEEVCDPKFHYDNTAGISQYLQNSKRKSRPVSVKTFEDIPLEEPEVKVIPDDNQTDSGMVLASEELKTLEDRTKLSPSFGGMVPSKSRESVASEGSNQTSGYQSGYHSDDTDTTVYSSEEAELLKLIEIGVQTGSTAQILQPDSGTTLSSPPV

recombinant VEGFR2/Fc = target: T3, recombinant VEGFR2/Fc (Homo sapiens (assumed), UniProt P35968); experiment: ELISA; VEGFR/Fc (0.25 ug/mL) captured on plates coated with goat anti-human IgG-Fc; dilutions of antibody-urease conjugate or biotinylated antibody in 0.1% BSA/T-TBS, room temperature, 2 h; conjugates detected with rabbit anti-urease and goat anti-rabbit-AP, biotinylated antibody with streptavidin-alkaline phosphatase; A405; conditions: both partners purified
T3 construct: vascular endothelial growth factor receptor 2 (VEGFR2), recombinant Fc fusion protein; Fc fusions of this supplier usually hold the extracellular domain (surmise); also called vascular endothelial growth factor receptor 2 Fc fusion; source: bought: R&D Systems
T3 sequence (P35968 20-764): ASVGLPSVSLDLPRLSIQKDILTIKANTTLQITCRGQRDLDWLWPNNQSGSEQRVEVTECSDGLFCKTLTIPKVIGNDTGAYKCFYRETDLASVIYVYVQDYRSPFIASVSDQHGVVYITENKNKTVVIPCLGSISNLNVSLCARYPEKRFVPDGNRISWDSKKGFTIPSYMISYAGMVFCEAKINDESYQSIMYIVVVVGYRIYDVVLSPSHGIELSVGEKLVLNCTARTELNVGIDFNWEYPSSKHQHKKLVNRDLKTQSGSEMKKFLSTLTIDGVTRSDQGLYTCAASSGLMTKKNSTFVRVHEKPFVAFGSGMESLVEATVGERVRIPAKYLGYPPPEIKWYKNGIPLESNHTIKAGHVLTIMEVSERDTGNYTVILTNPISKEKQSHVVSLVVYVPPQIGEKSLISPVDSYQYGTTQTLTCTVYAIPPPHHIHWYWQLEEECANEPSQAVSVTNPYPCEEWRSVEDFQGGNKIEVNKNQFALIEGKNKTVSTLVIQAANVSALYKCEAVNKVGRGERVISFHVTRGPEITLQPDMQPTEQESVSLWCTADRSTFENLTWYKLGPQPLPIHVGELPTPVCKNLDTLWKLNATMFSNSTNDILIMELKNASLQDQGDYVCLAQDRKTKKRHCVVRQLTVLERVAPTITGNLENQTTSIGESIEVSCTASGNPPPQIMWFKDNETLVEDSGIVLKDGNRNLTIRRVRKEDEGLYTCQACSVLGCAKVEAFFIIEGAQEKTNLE

Row | Binder | binding result (V21H4-DOS47) | EC50 [1] [nM] | EC50 (recombinant VEGFR2/Fc) [nM]
1 | VEGFR1/Fc (Fc fusion, UniProt P17948 27-758, looked up, vascular endothelial growth factor receptor 1 (VEGFR1), recombinant Fc fusion protein; also called recombinant Fc fusion protein of VEGFR1; source: bought: R&D Systems) SKLKDPELSLKGTQHIMQAGQTLHLQCRGEAAHKWSLPEMVSKESERLSITKSACGRNGKQFCSTLTLNTAQANHTGFYSCKYLAVPTSKKKETESAIYIFISDTGRPFVEMYSEIPEIIHMTEGRELVIPCRVTSPNITVTLKKFPLDTLIPDGKRIIWDSRKGFIISNATYKEIGLLTCEATVNGHLYKTNYLTHRQTNTIIDVQISTPRPVKLLRGHTLVLNCTATTPLNTRVQMTWSYPDEKNKRASVRRRIDQSNSHANIFYSVLTIDKMQNKDKGLYTCRVRSGPSFKSVNTSVHIYDKAFITVKHRKQQVLETVAGKRSYRLSMKVKAFPSPEVVWLKDGLPATEKSARYLTRGYSLIIKDVTEEDAGNYTILLSIKQSNVFKNLTATLIVNVKPQIYEKAVSSFPDPALYPLGSRQILTCTAYGIPQPTIKWFWHPCNHNHSEARCDFCSNNEESFILDADSNMGNRIESITQRMAIIEGKNKMASTLVVADSRISGIYICIASNKVGTVGRNISFYITDVPNGFHVNLEKMPTEGEDLKLSCTVNKFLYRDVTWILLRTVNNRTMHYSISKQKMAITKEHSITLNLTIMNVSLQDSGTYACRARNVYTGEEILQKKEITIRDQEAPYLLRNLSDHTVAISSSTTLDCHANGVPEPQITWFKNNHKIQQEPGIILGPGSSTLFIERVTEEDEGVYHCKATNQKGSVESSAYLTVQGTSDKSNLE | no binding | – | –
2 | biotin-V21H4 (VHH, residues 1-127: V21 core (122 residues, ending at S122) and the first of the added C-terminal residues G123-C136; C136 is the added terminal cysteine; 136 residues in all; also called V21H4 antibody; biotinylated V21H4) VHH: QVQLVESGGGLVQAGGSLRLSCAASGRAFSSYAMGWFRQAPGKERELVAAISWSDDSTYYANSVKGRFTISRDNAKSAVYLQMNSLKPEDTAVYYCAAHKSLQRPDEYTYWGQGTQVTVSS | – | 1.6 | 1.8
